Reference: patent publication WO2020241660A1 (dated 2020)

Biological target: T1, peptide consisting of amino acid residues 44-72 of the human eIF5A protein (human, UniProt P63241 44-72)
T1 construct: range 44-72; also called human eIF5A (44-72) peptide
Test: ELISA, screening of hybridoma antibodies on the peptide

T1 sequence (P63241 44-72 limits assumed): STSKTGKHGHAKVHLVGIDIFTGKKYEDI

B1: anti-ORAIP antibody (clone YSP5-45-36) (antibody, V domains shown)
VH: EVKLVESGGGLVQPGGSLRLSCATSGFTFTDYYMSWARQPPGKALEWLGFIRNKANGYTTEYSASVKGRFTISRDNSLGILYLQMNTLRPEDSATYYCARNYYGTSFSWFAYWGQGTLVTVSA
VL: MTQTPLSLSVSLGDQASISCRSSQSIVHFNGNTYLEWYLQKPGQSPKLLIYKVSSRFSGVPDRFSGSGSGTDFTLKISRVEAEDLGVYYCFQGSHVPPTFGGGTKLEIK
notes: Mouse monoclonal antibody from a hybridoma (mouse IgG H and L chain primers were used for cloning); also called neutralizing antibody against secretory eIF5A
Q: Does B1 bind?
A: binds
